Laboratory results published in the Immune Epitope Database (IEDB).
One block for each sequence: values may come before it.

Experiments:
[1] = target: HLA-A*02:03; assay: IEDB peptide-MHC binding, purified MHC/competitive/radioactivity; filed as Kd, often an IC50 or EC50 that approximates it; ≥ and ≤ were set here for values at or beyond the usual limits of such assays
[2] = target: HLA-A*02:02; assay: as above
[3] = target: HLA-A*02:06; assay: as above
[4] = target: HLA-B*58:01; assay: IEDB peptide-MHC binding, purified MHC/direct/fluorescence; filed as Kd, often an IC50 or EC50 that approximates it; ≥ and ≤ were set here for values at or beyond the usual limits of such assays
[5] = target: HLA-A*30:01; assay: IEDB peptide-MHC binding, purified MHC/competitive/radioactivity; filed as Kd, often an IC50 or EC50 that approximates it; ≥ and ≤ were set here for values at or beyond the usual limits of such assays
[6] = target: HLA-A*02:01; assay: IEDB peptide-MHC binding, purified MHC/direct/fluorescence; filed as Kd, often an IC50 or EC50 that approximates it; ≥ and ≤ were set here for values at or beyond the usual limits of such assays
[7] = target: HLA-A*03:01; assay: IEDB peptide-MHC binding, purified MHC/competitive/radioactivity; filed as Kd, often an IC50 or EC50 that approximates it; ≥ and ≤ were set here for values at or beyond the usual limits of such assays; settings: source organism: Dengue virus 1 Brazil/97-11/1997
[8] = target: HLA-A*02:01; assay: IEDB peptide-MHC binding, purified MHC/competitive/fluorescence; ≥ and ≤ were set here for values at or beyond the usual limits of such assays
[9] = target: HLA-A*02:01; assay: IEDB peptide-MHC binding, purified MHC/competitive/fluorescence; filed as Kd, often an IC50 or EC50 that approximates it; ≥ and ≤ were set here for values at or beyond the usual limits of such assays; settings: source organism: unidentified
[10] = target: HLA-B*07:02; assay: IEDB peptide-MHC binding, purified MHC/direct/fluorescence; filed as Kd, often an IC50 or EC50 that approximates it; ≥ and ≤ were set here for values at or beyond the usual limits of such assays; settings: source organism: Human immunodeficiency virus type 1 (STRAIN UGANDAN / ISOLATE U455)
[11] = target: HLA-B*15:01; assay: as above; settings: source organism: Human immunodeficiency virus type 1 (STRAIN UGANDAN / ISOLATE U455)
[12] = target: HLA-A*69:01; assay: as above
[13] = target: HLA-A*11:01; assay: as above; settings: source organism: Yellow fever virus
[14] = target: HLA-A*01:01; assay: as above; settings: source organism: Yersinia pestis
[15] = source organism: Vaccinia virus WR
[16] = source organism: Dengue virus 1 Brazil/97-11/1997
[17] = source organism: Mammarenavirus guanaritoense
[18] = source organism: Sudan ebolavirus
[19] = source organism: Francisella tularensis subsp. holarctica LVS
[20] = source organism: Mycobacterium tuberculosis
[21] = source organism: Zaire ebolavirus
[22] = source organism: Human immunodeficiency virus 1
[23] = source organism: Mycobacterium tuberculosis variant bovis
[24] = source organism: SARS coronavirus Tor2
[25] = source organism: Giardia lamblia ATCC 50803

Sequence: FVVNGHTCM
- Kd [1, 15]: 5900 nM
- Kd [2, 15]: 6640 nM
- Kd [3, 15]: 1810 nM

Sequence: RLVDSIGSW
- Kd ([4]; source organism: Influenza A virus (A/swine/IDT/Bakum1832/2000(H1N2))): 128 nM

Sequence: RSLKAFFSW
- Kd ([4]; source organism: Mammarenavirus machupoense): 29.4 nM

Sequence: RLLKNMKQCT
- Kd [1, 15]: 3140 nM
- Kd [2, 15]: ≥ 46800 nM
- Kd [3, 15]: 11900 nM

Sequence: GRLITANPIV
- Kd [5, 16]: ≥ 57100 nM

Sequence: HLSNSFFIK
- Kd [5, 15]: 17.3 nM

Sequence: CTSEIQNVT
- Kd [1, 15]: 5180 nM
- Kd [2, 15]: 188 nM
- Kd [3, 15]: 10200 nM

Sequence: RIRQGKFIK
- Kd [5, 15]: 4.79 nM

Sequence: FLIDLAFLI
- Kd ([6]; source organism: Camelpox virus M-96): 3 nM

Sequence: KQKMGPIYA
- Kd [5, 15]: 21.7 nM

Sequence: DTMSIYIAVA
- Kd [1, 15]: 23.7 nM
- Kd [2, 15]: 19.5 nM
- Kd [3, 15]: 1480 nM

Sequence: GSRVRNIIA
- Kd [5, 15]: 8.85 nM

Sequence: KNAGYLVGR
- Kd [1, 17]: ≥ 78100 nM
- Kd [2, 17]: ≥ 45600 nM
- Kd [3, 17]: ≥ 77000 nM

Sequence: LARWSSFKK
- Kd [5, 16]: 6.79 nM
- Kd [7]: 171 nM

Sequence: FSYGTLIID
- IC50 ([8]; source organism: Variola virus): ≥ 283000 nM

- Kd [9]: 20 nM
Sequence: FLHEDTEKI

Sequence: FLQISRVNDL
- Kd [1, 15]: 67.1 nM
- Kd [2, 15]: 5.18 nM
- Kd [3, 15]: 583 nM

Sequence: TIGTIAGGV
- Kd [1, 15]: 17.4 nM
- Kd [2, 15]: 298 nM
- Kd [3, 15]: 1140 nM

Sequence: TLFKIDNNT
- IC50 [8, 18]: 18700 nM

Sequence: DLNRMPTDML
- Kd [1, 15]: 2190 nM
- Kd [2, 15]: 1250 nM
- Kd [3, 15]: ≥ 47500 nM

Sequence: NLHYWTAQE
- IC50 [8, 18]: ≥ 189000 nM

Sequence: HPDIVIYQY
- Kd [10]: 13000 nM
- Kd [11]: 1510 nM

Sequence: FTLDADLGI
- Kd [12, 19]: 2.2 nM
- Kd [6, 19]: 8.2 nM

Sequence: VIVPDIKLDA
- Kd [1, 15]: ≥ 21400 nM
- Kd [2, 15]: ≥ 33500 nM
- Kd [3, 15]: 883 nM

Sequence: RTRDLFIAL
- Kd [5, 15]: 0.108 nM

Sequence: HVYDFEPYY
- Kd [5, 15]: 27.4 nM

Sequence: MTSLSAVSV
- Kd [5, 15]: 887 nM

Sequence: SNGLITSTV
- IC50 [8, 18]: 60400 nM

Sequence: YLGIFKNNDV
- Kd [1, 15]: 16.9 nM
- Kd [2, 15]: 14.8 nM
- Kd [3, 15]: 285 nM

Sequence: YGLVSKFMS
- IC50 [8, 15]: 25600 nM

Sequence: GLPPGTPAV
- Kd [6, 20]: 27.8 nM

Sequence: KVMFVIRFK
- Kd [5, 15]: 0.597 nM

Sequence: FTHTTAFFNT
- Kd [1, 15]: 10200 nM
- Kd [2, 15]: 17200 nM
- Kd [3, 15]: 51 nM

Sequence: RMGERQLQK
- Kd [13]: 29.5 nM

Sequence: MNAPDDLVL
- IC50 [8, 21]: ≥ 162000 nM

Sequence: SQIFNIISYI
- Kd [1, 15]: 181 nM
- Kd [2, 15]: 61.7 nM
- Kd [3, 15]: 23.5 nM

Sequence: RMPTDMLKL
- Kd [1, 15]: 106 nM
- Kd [2, 15]: 950 nM
- Kd [3, 15]: 678 nM

Sequence: VLPPEINSL
- Kd [6, 20]: 71.4 nM

Sequence: KLTKDRKML
- Kd [1, 15]: ≥ 36400 nM
- Kd [2, 15]: ≥ 24500 nM
- Kd [3, 15]: ≥ 77100 nM

Sequence: NANPDCKTI
- Kd [12, 22]: 7640 nM
- Kd [4, 22]: 9310 nM

Sequence: KLPTWLGAAI
- Kd [1, 15]: 123 nM
- Kd [2, 15]: 103 nM
- Kd [3, 15]: 295 nM

Sequence: TITTFIPISA
- Kd [1, 15]: 176 nM
- Kd [2, 15]: 4060 nM
- Kd [3, 15]: 4840 nM

Sequence: HAVYSIVFV
- Kd [5, 15]: 591 nM

Sequence: VLTSVDIET
- Kd [1, 15]: 11300 nM
- Kd [2, 15]: 382 nM
- Kd [3, 15]: 13.7 nM

Sequence: ELRGLLKDV
- Kd [12, 23]: 13000 nM
- Kd [6, 23]: ≥ 20000 nM

Sequence: AMVQVHSQG
- IC50 [8, 21]: ≥ 102000 nM

Sequence: AINGFVLPK
- Kd [14]: ≥ 20000 nM

Sequence: AQMGTLLIA
- Kd [1, 24]: 1.55 nM
- Kd [2, 24]: 64.5 nM
- Kd [3, 24]: 0.442 nM

Sequence: VTYNIKPVIV
- Kd [1, 15]: 116 nM
- Kd [2, 15]: 4920 nM
- Kd [3, 15]: 358 nM

Sequence: IIKSPYMFA
- Kd ([5]; source organism: Vaccinia virus Copenhagen): 6.42 nM

Sequence: YFLESNFFI
- Kd [12, 25]: 2.2 nM
- Kd [6, 25]: 0.6 nM

Sequence: FSTLDKITD
- IC50 ([8]; source organism: Variola virus): 53600 nM
